These are literature values, as cited in paper PMC4059260.

Where two headings read alike, the source gives them in different places.

As usually defined, the Kd is the constant that tells how readily two partners part at equilibrium.

In series [1] the target is VEGF (Homo sapiens) (UniProt P15692).
Series [2] has the same target. This is another data set of the same source.

Sequence of UniProt P15692 (P15692 whole entry): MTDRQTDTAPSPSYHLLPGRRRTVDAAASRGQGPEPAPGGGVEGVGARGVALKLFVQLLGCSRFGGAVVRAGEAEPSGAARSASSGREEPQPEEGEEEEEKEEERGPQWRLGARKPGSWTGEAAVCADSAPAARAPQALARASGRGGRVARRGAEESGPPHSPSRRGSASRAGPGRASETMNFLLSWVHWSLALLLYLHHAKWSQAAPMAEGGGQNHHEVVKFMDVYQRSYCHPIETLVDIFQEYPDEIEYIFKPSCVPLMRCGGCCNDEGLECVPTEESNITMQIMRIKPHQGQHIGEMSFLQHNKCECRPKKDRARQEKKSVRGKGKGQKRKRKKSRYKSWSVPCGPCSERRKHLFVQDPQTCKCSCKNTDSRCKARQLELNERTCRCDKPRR

In the case of “alpha-2-macroglobulin (from UniProt P01023)”, in the series with VEGF (Homo sapiens) [1], the Kd is 420 nM.

Consider sFlt-1 (from UniProt P17948), for which, in the series with VEGF (Homo sapiens) [2], the Kd is 0.001 nM.
